Twelve molecules from patent publication US20070003549A1 (published 2007) can be followed below.

Experiment [1] has as its target T1, VEGF-165 (human, UniProt P15692-4 27-191).
T1 construct: also called vascular endothelial growth factor
Put plainly: supernatant VEGFR2 RBA (ELISA); + = more than 50% reduction of VEGF binding to VEGF R2/Fc; dAb assayed at 50 nM.

Experiment [2] deals with T1, VEGF-165. Description: cell-based or functional assay.
The target of experiment [3] is T1, VEGF-165. Description: VEGF RBA (ELISA): inhibition of VEGF binding to VEGF receptor (R1 or R2 not specified); IgG-like format.

Where a chain is given by its changes, count along the chain named.

T1 sequence (P15692 other isoform, or with tags, fused parts or gaps limits assumed): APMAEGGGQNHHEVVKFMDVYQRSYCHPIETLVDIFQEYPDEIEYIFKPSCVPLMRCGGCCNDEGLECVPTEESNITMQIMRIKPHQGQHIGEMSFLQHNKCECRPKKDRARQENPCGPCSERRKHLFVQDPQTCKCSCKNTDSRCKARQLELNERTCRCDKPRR

B1: TAR15-6 (other)
VH: EVQLLESGGGLVQPGGSLRLSCAASGFTFHLYDMMWVRQAPGKGLEWVSFIGGDGLNTYYADSVKGRFTISRDNSKNTLYLQMNSLRAEDTAVYYCAKAGTQFDYWGQGTLVTVSS
notes: Human dAb, VH single variable domain
Consider B1, for which the binding result with VEGF-165 [1] is “binds”.

B2: IgG-like format No. 10 (DOM15-26 VH on CH / DOM16-52 VH on CK) (bispecific antibody, V domains shown)
V domain 1: EVQLLESGGGLVQPGGSLRLSCAASGFTFGAYPMMWVRQAPGKGLEWVSEISPSGSYTYYADSVKGRFTISRDNSKNTLYLQMNSLRAEDTAVYYCAKDPRKFDYWGQGTLVTVSS
V domain 2: EVQLLESGGGLVQPGGSLRLSCAASGFTFAEQPMTWARQAPGKGLEWVSSISSFGDLTYYADSVKGRFTISRDNSKNTLYLQMNSLRAEDTAVYYCAKGVYRISRFDYWGQGTLVTVSS
notes: IgG-like format; also called IgG 10
Consider B2, for which, in the experiment with VEGF-165 [2], the “VEGF (bioassay) ND50” value was 0.2 nM. In the experiment with VEGF-165 [3], this molecule yielded an IC50 of 0.05 nM.

B3: IgG-like format No. 19 (DOM15-26 VH on CH / Dummy VK on CK) (antibody, V domains shown, not shown: a dimerising Fc or GST)
VH: B2 V domain 1
notes: IgG-like format; also called IgG 19
The molecule B3 had an IC50 with VEGF-165 [3] of 4.8 nM.

B4: TAR15-27 (other)
VH: EVQLLESGGGLVQPGGSLRLSCAASGFTFQFYKMGWVRQAPGKGLEWVSSISSVGDATYYADSVKGRFTISRDNSKNTLYLQMNSLRAEDTAVYYCAKMGGGPPTYVVYFDYWGQGTLVTVSS
notes: as for B1
Take B4: in the experiment with VEGF-165 [1], the binding result is “binds”.

B5: TAR15-8 (other)
VH: EVQLLESGGGLVQPGGSLRLSCAASGFTFQWYPMWWVRQAPGKGLEWVSLIEGQGDRTYYADSVKGRFTISRDNSKNTLYLQMNSLRAEDTAVYYCAKAGDRTAGSRGNSFDYWGQGTLVTVSS
notes: as for B1
Regarding B5, the binding result in the experiment with VEGF-165 [1] was “binds”.

B6: TAR15-30 (other)
VH: EVQLLESGGGLVQPGGSLRLSCAASGFTFSDYAMYWVRQAPGKGLEWVSSITARGFITYYADSVKGRFTISRDNSKNTLYLQMNSLRAEDTAVYYCAKSGFPHKSGSNYFDYWGQGTLVTVSS
notes: as for B1
On to B6, for which, in the experiment with VEGF-165 [1], the binding result is recorded as “binds”.

B7: TAR15-23 (other)
VH: EVQLLESGGGLVQPGGSLRLSCAASGFTFKAYEMGWVRQAPGKGLEWVSGISPNGGWTYYADSVKGRFTISRDNSKNTLYLQMNSLRAEDTAVYYCAKESISPTPLGFDYWGQGTLVTVSS
notes: as for B1
For the molecule B7, the binding result in the experiment with VEGF-165 [1] is reported as “binds”.

B8: TAR15-29 (other)
VH: EVQLLESGGGLVQPGGSLRLSCAASGFTFGEYGMYWVRQAPGKGLEWVSSISERGRLTYYADSVKGRFTISRDNSKNTLYLQMNNLRAEDTAVYYCAKSALSSEGFSRSFDYWGQGTLVTVSS
notes: as for B1
For B8, the binding result with VEGF-165 [1] was “binds”.

B9: TAR15-5 (other)
VH: EVQLLESGGGLVQPGGSLRLSCAASGFTFRLYDMVWVRQAPGKGLEWVSYISSGGSGTYYADSVKGRFTISRDNSKNTLYLQMNSLRAEDTAVYYCAKAGGRASFDYWGQGTLVTVSS
notes: as for B1
Consider B9, for which, in the experiment with VEGF-165 [1], the binding result is recorded as “binds”.

B10: TAR15-24 (other)
VH: EVQLLESGGGLVQPGGSLRLSCAASGFTFTGYEMGWVRQAPGKGLEWVSYISRGGRWTYYADSVKGRFTISRDNSKNTLYLQMNSLRAEDTAVYYCAKSDTMFDYWGQGTLVTVSS
notes: as for B1
Take B10: the binding result in the experiment with VEGF-165 [1] is “binds”.

B11: TAR15-25 (other)
VH: B10 VH with T30S, G31A, Y50F, R53G, S99Y, D100S, T101E, M102D
notes: as for B1
As to B11, the binding result in the experiment with VEGF-165 [1] is given as “binds”.

B12: TAR15-7 (other)
VH: EVQLLESGGGLVQPGGSLRLSCAASGFTFNKYPMMWVRQAPGKGLEWVSEISPSGQDTYYADSVKGRFTISRDNSKNTLYLQMNSLRAEDTAVYYCAKNPQILSNFDYWGQGTLVTVSS
notes: as for B1
Take B12: the binding result in the experiment with VEGF-165 [1] was “binds”.
